Experimental data as given in IntAct's records for PubMed 18653891.

B1: Serine/threonine-protein kinase BSK1 (Arabidopsis thaliana (Mouse-ear cress)), Q944A7 (parent)
chain: MGCCQSLFSGDNPLGKDGVQPQPLSQNNHGGATTADNGGSGGASGVGGGGGGGGIPSFSEFSFADLKAATNNFSSDNIVSESGEKAPNLVYKGRLQNRRWIAVKKFTKMAWPEPKQFAEEAWGVGKLRHNRLANLIGYCCDGDERLLVAEFMPNDTLAKHLFHWENQTIEWAMRLRVGYYIAEALDYCSTEGRPLYHDLNAYRVLFDEDGDPRLSCFGLMKNSRDGKSYSTNLAYTPPEYLRNGRVTPESVTYSFGTVLLDLLSGKHIPPSHALDMIRGKNIILLMDSHLEGKFSTEEATVVVELASQCLQYEPRERPNTKDLVATLAPLQTKSDVPSYVMLGIKKQEEAPSTPQRPLSPLGEACSRMDLTAIHQILVMTHYRDDEGTNELSFQEWTQQMKDMLDARKRGDQSFREKDFKTAIDCYSQFIDVGTMVSPTVFGRRSLCYLLCDQPDAALRDAMQAQCVYPDWPTAFYMQSVALAKLNMNTDAADMLNEAAQLEEKRQRGGRGS

Variants of: B1
Settings: with bri1_arath BRI1, O22476
Chain of bri1_arath BRI1, O22476 (O22476 whole entry): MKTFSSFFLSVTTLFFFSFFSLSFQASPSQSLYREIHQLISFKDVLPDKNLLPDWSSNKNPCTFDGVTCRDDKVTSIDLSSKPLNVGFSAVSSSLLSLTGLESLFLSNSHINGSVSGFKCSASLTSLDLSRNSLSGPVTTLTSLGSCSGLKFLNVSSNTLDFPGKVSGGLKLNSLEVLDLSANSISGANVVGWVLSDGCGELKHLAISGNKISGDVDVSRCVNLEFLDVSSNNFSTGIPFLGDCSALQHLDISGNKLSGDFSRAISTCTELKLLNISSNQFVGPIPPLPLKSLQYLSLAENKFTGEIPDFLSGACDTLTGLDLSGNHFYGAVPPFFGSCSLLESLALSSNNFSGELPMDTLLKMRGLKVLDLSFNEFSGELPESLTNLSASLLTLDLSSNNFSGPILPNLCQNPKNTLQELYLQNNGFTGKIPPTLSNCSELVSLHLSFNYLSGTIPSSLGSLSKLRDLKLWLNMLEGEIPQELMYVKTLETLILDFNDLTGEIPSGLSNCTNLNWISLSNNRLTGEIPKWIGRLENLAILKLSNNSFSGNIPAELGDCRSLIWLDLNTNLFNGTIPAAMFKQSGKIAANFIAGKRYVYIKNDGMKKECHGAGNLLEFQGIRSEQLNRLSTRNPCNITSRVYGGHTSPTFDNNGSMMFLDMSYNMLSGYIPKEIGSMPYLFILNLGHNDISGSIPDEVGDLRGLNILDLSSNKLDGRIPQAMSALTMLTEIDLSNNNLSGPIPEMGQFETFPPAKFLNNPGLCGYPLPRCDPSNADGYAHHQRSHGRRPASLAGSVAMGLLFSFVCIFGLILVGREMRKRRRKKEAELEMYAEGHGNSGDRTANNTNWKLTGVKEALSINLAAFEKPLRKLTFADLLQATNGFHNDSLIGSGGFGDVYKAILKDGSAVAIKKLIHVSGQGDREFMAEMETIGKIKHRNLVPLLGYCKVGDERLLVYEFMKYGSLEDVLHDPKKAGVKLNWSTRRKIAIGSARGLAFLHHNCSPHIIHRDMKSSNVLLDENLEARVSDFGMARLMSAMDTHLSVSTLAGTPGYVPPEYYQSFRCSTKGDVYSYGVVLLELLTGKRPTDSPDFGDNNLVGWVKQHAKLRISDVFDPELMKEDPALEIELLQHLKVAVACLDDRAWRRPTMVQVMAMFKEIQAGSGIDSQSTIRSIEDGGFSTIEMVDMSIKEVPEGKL

| Variant | effect of a mutation on the interaction |
| --- | --- |
| S230A | decreasing interaction |
